# In IntAct's records for PubMed 18007657:
# Molecular target: T1, anm10_arath PRMT10 (UniProt Q9MAT5)
# T1 sequence: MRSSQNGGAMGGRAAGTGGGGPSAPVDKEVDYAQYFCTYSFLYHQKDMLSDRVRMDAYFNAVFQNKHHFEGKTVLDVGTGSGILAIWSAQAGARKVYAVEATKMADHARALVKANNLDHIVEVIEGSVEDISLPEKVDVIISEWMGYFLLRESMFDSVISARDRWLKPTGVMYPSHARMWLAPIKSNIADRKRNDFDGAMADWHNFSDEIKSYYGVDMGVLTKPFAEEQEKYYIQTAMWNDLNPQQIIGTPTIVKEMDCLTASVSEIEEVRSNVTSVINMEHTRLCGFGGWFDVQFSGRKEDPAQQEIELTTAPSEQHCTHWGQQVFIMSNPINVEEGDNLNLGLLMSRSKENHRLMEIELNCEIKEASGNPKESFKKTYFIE
substance,measurement,value
Histone H4 (Bos taurus (Bovine)) (from UniProt P62803) R4L,effect of a mutation on the interaction,decreasing interaction
